“Also recorded” adds a separate entry of the source. Like-named read-outs stand apart in the source and are kept apart here.
Columns and labels:
[1] = literature values; read-out: Km for prephenate of other plant and microbial PDHs; cited from earlier work
[2] = Substrate and electron acceptor preference of purified recombinant enzymes, ADH activity; format: biochemical; settings: with NADP+ or NAD+, compared with PDH activity
Experimental: (§1) To test the electron acceptor and substrate preference of purified recombinant enzymes (FIG. 12), we incubated reactions for 15 min with 1.5 mM substrate (L-arogenate or prephenate) and 1 mM cofactor (NAD^+ or NADP^+). Assays were conducted with decreasing enzyme concentrations and stopped by placing on ice, and the production of reduced cofactor, NAD(P)H, was Measured at 340 nm using a spectrophotometer (NanoDrop 2000, Thermo).

[3] = Kinetic analysis of purified recombinant enzymes, PDH activity; format: biochemical
Experimental: (§2) Kinetic parameters of purified recombinant GmPDH1 and MtPDH1 for ADH activity (Table 3) were determined from assays conducted using varying L-arogenate concentrations (39 μM to 5 mM). Assays were incubated for 15 min with 0.5 mM NADP^+, by placing on ice and quantified by measuring production of NADPH by absorbance at 340 nm. Kinetic parameters of purified recombinant GmPDH1 and MtPDH1 for PDH activity (Table 3) were determined from assays conducted using varying prephenate concentrations (29 μM to 3.5 mM). Assays with 0.5 mM NADP^+ were monitored continuously at 340 nm using a microplate reader (Tecan GENios, Zurich, Switzerland) for 7 min. Kinetic parameters were determined using hyperbolic regression analysis in Hyper (http://homepage.ntlworld.com/john.eastetby/software.html). Enzyme assays were carried out at a protein concentration and reaction time that were in the linear range and proportional to reaction velocity. The final enzyme concentrations of the purified recombinant GmPDH1 and MtPDH1 were 0.9 μg/ml and 0.7 μg/ml for PDH activity and 3.0 μg/ml and 1.4 μg/ml for ADH activity, respectively.

[4] = Qualitative HPLC detection of PDH activity in E. coli cell lysates expressing candidate enzymes; format: biochemical; settings: 2 mM prephenate, saturating conditions
Experimental: ADH and PDH reactions contained 25 mM HEPES (pH 7.5), 50 mM KCl, 10% ethylene glycol, 1 mM NADP (or NAD^+), 2 mM substrate (L-arogenate or prephenate, respectively) unless otherwise noted. Arogenate was prepared by enzymatic conversion from prephenate (Sigma-Aldrich), as previously reported. Reactions were started by addition of enzyme from various sources and incubated at 37′ C. for a given amount of time, as noted below,
HPLC-based methods were used to directly detect the final products of ADH and PDH assays, Tyr and HPP, respectively from crude E. coli extracts (FIG. 3B and FIG. 3C) and crude plant extracts (FIG. 2A and FIG. 6). For HPLC detection of PDH activity, reactions were incubated for 45 min and terminated by addition of NaBH4, which converts the reaction product HPP (which produced multiple peaks; FIG. 6) into hydroxyphenyllactic acid (HPLA), followed by neutralization with 100 μl of 6 N HCl. The conversion and recovery rate was 80±1.5% s.d. which was taken into account for the calculation of specific activity from crude plant extracts (FIG. 2C). HPLA was detected as a single peak (FIG. 2A) after being separated by HPLC (Agilent 1260, Santa Clara, Calif.) equipped with a ZORBA X SB-C18 column (Agitent) using a 6-min isocratic elution at 25% methanol in 0.1% phosphoric acid, followed by a 20-min linear gradient of 25-60% methanol at a flow rate of 1.0 ml/min. HPLA was detected using UV absorbance at 270 nm and quantified by a calibration curve generated from the authentic HPLA standard (Sigma-Aldrich). For HPLC-based detection of ADH activity (FIG. 3B), reactions were incubated for 45 min and terminated by addition of methanol to a final concentration of 66% (v/v). The product, Tyr, was derivatized with OPA and separated on a ZORBAX eclipse-XDB C18 column (Agilent) using a 30-min linear gradient of 20-45% methanol in 0.1% animonium acetate at a flow rate of 0.8 ml/min. Tyr was detected by UV absorption at 336 nm and quantified on the basis of a calibration curve generated by the authentic Tyr standard (Acros, Geel, Belgium).
The crude enzyme extracts were first subjected to PDH and ADH assays using saturating conditions to screen for any detectable PDH and/or ADH activity (FIG. 3B and FIG. 3C). ADH activity was detected from all five candidates. In contrast, PDH activity was detected only in Glyma11a35760 and Glyma18g02650 as well as their closest homolog from Medicago (Mt3g071980) but not in Glyma5g07870, Glyma17g13150 and Glyma14g05990 (FIG. 3C).

[5] = Inhibition analysis: effect of L-Phe on PDH activity of purified recombinant enzymes; format: biochemical; settings: purified recombinant enzyme
Experimental: (§3) ADH and PDH reactions using GmPDH1, Glyma11g35760, MtPDH1 and AtADH2 (FIG. 5A) contained 200 mM HEPES (pH 7.3), 50 mM KCl, 10% ethylene glycol, 1 mN4 NADP^+ and 1 mM substrate (L-arogenate or prephenate, respectively). Reactions were started by addition of enzyme and incubated at 37° C. for 15 min in the presence of increasing concentrations of effectors: L-Tyr FIG. 5A), L-Phe, L-Trp and HPP. Tyr was dissolved in basic conditions (0.025 N NaOH) to dissolve at high concentrations (up to 10 mM), though 200 mM HEPES maintained the final reaction pH at 7.6. Tyr sensitivity of purified recombinant GmPDH1 and MtPDH1 was also tested at prephenate concentrations ranging from […] to 59 μM, below the K values for GmPDH1 and MtPDH1, while keeping the L-Tyr concentration constant at 1 mM (FIG. 13). Enzyme activity was measured for the production of reduced cofactor (NADPH) at 340 nm using a spectrophotometer, except for crude soybean extracts, which were analyzed by HPLC after 45 min incubation and reduction to HPLA as described above.

[6] = Kinetic analysis of purified recombinant enzymes, ADH activity; format: biochemical; settings: substrate L-arogenate (ADH activity), 37° C., 0.5 mM NADP+, mean ± s.e.m.
Experimental: as §2

[7] = Inhibition analysis: effect of HPP on PDH activity of purified recombinant enzymes; format: biochemical; settings: purified recombinant enzyme
Experimental: as §3

[8] = Inhibition analysis: L-Tyr sensitivity of PDH activity of purified recombinant GmPDH1 and MtPDH1; format: biochemical; settings: for effect of L-Tyr on PDH activity at low (non-saturating) prephenate concentrations: 1 mM L-Tyr, prephenate 15 mM to 59 μM; for effect of L-Tyr on PDH activity at low (non-saturating) prephenate concentrations / PDH activity: 1 mM NADP+; for PDH activity: purified recombinant enzyme, 1 mM prephenate; for inhibition of PDH activity by L-Tyr: up to 10 mM of L-Tyr
Experimental: as §3

[9] = Inhibition analysis: effect of L-Trp on PDH activity of purified recombinant enzymes; format: biochemical; settings: purified recombinant enzyme
Experimental: as §3

[10] = Substrate and electron acceptor preference of purified recombinant enzymes, PDH activity; format: biochemical; settings: with NADP+ and to a lesser extent NAD+
Experimental: as §1

[11] = cofactor NADP+, read-out: apparent Km for prephenate
[12] = substrate prephenate (PDH activity), 37° C., 0.5 mM NADP+, mean ± s.e.m.
[13] = substrate prephenate (PDH activity), 37° C., 0.5 mM NADP+, mean ± s.e.m., read-out: Km

Row | Molecule | ADH activity of purified recombinant enzyme [2] | Km [3, 11] [µM] | Vmax [3, 12] [nKat mg^−1] | kcat [3, 12] [s⁻¹] | Km [3, 13] [µM] | PDH activity (qualitative detection) [4] | effect of L-Phe on PDH activity [5] | Km [6] [µM] | Vmax [6] [nKat mg^−1] | kcat [6] [s⁻¹] | effect of HPP on PDH activity [7] | effect of L-Tyr on PDH activity at low (non-saturating) prephenate concentrations [8] | PDH activity ([8]; L-Tyr 0 mM) [nKat/mg] | PDH activity ([8]; L-Tyr 0.01 mM) [nKat/mg] | PDH activity ([8]; L-Tyr 0.1 mM) [nKat/mg] | PDH activity ([8]; L-Tyr 1.0 mM) [nKat/mg] | PDH activity ([8]; L-Tyr 10 mM) [nKat/mg] | inhibition of PDH activity by L-Tyr [8] | effect of L-Trp on PDH activity [9] | PDH activity of purified recombinant enzyme [10] | further results
1 | M. tuberculosis PDH: microbial prephenate dehydrogenase from the literature (protein, UniProt O69721 1-323, looked up) Prephenate dehydrogenase: MTRTVAAPPVCVLGLGLIGGSIMRAAAAAGREVFGYNRSVEGAHGARSDGFDAITDLNQTLTRAAATEALIVLAVPMPALPGMLAHIRKSAPGCPLTDVTSVKCAVLDEVTAAGLQARYVGGHPMTGTAHSGWTAGHGGLFNRAPWVVSVDDHVDPTVWSMVMTLALDCGAMVVPAKSDEHDAAAAAVSHLPHLLAEALAVTAAEVPLAFALAAGSFRDATRVAATAPDLVRAMCEANTGQLAPAADRIIDLLSRARDSLQSHGSIADLADAGHAARTRYDSFPRSDIVTVVIGADKWREQLAAAGRAGGVITSALPSLDSPQ | – | – | – | – | – | – | – | – | – | – | – | – | – | – | – | – | – | – | – | – | Km [1]: 410 µM
2 | MtPDH1: Medicago truncatula prephenate dehydrogenase enzyme, recombinant, insensitive to L-Tyr (protein, listed as Medicago truncatula) MSSSSKSLKIGIVGFGTFGQFLANTMIKQGHTLTATSRTDYSQLCDQMGIHFFRDITAFLDADMDVILLCTSISSLSEVVGSMPLACLKRPTLFVDVLSVKEHPKNLLLKVLPEESDILCTHPMFGPVSGKNGWQNLTFMFDKVRIKDEVTCSKFLQIFASEGCKMVEMSCEEHDKAAAKSQFITHTIGRTLAEMDIKSTPIDTKGFQTLVELKKPVMGCSFDLYSGLFVYNRFARQELENLEHALHKVKEMLVQRIDEGQNPERTES | much weaker ADH activity | 223 | 655 ± 73 | 21.8 ± 2.4 | 223 ± 20 | detected | did not reduce; also recorded: None of the tested molecules significantly reduced PDH activity | 42500 ± 21800 | 229 ± 96 | 5.5 ± 3.2 | did not reduce; also recorded: None of the tested molecules significantly reduced PDH activity | did not affect; also recorded: no effect | 579 ± 28 | 604 ± 22 | 610 ± 7 | 641 ± 19 | 652 ± 56 | not inhibited | did not reduce; also recorded: None of the tested molecules significantly reduced PDH activity | strong PDH activity | kcat ([3]; substrate prephenate (PDH activity), 37° C., 0.5 mM NADP+, mean ± s.e.m., listed as Mt3g071980): 22 s⁻¹; Km ([6]; listed as Mt3g071980): 43000 µM
3 | GmPDH1: soybean prephenate dehydrogenase enzyme, recombinant, insensitive to L-Tyr (protein, Glycine max, soybean prephenate dehydrogenase enzyme, recombinant, insensitive to L-Tyr) MSTSSSSQSLKIGIVGFGNFGQFLAKTMIKQGHTLTATSRSDYSELCLQMGIHFFRDVSAFLTADIDVIVLCTSILSLSEVVGSMPLTSLKRPTLFVDVLSVKEHPRELLLRELPEDSDILCTHPMFGPQTAKNGWTDHTFMYDKVRIRDEVICSNFIQIFATEGCKMVQMSCEEHDRAAAKSQFITHTIGRTLGEMDIQSTPIDTKGFETLVKLKETMMRNSFDLYSGLFVYNRFARQELENLEHALHKVKETLMIQRTNGEQGHKRTES | much weaker ADH activity | 127 | 800 ± 21 | 26.3 ± 0.7 | 127 ± 20 | detected | did not reduce; also recorded: None of the tested molecules significantly reduced PDH activity | 17000 | 307 ± 56 | 10.1 ± 1.8 | did not reduce; also recorded: None of the tested molecules significantly reduced PDH activity | did not affect; also recorded: no effect | 1059 ± 69 | 1064 ± 52 | 1103 ± 55 | 1065 ± 44 | 1152 ± 101 | not inhibited | did not reduce; also recorded: None of the tested molecules significantly reduced PDH activity | strong PDH activity | kcat ([3]; substrate prephenate (PDH activity), 37° C., 0.5 mM NADP+, mean ± s.e.m., listed as Glyma18g02650): 26 s⁻¹

Reference: patent US20150150157A1, “PREPHENATE DEHYDROGENASES AND AROGENATE DEHYDROGENASES THAT ARE INSENSITIVE TO EFFECTOR FEEDBACK INHIBITION AND METHODS OF USING THE SAME” (Wisconsin Alumni Research Foundation, priority 2013, published 2015)
